Earlier results as cited in publication PMC6746776.

Biological target: p63 TAD TAD (Homo sapiens) (UniProt Q9H3D4)
Sequence (Q9H3D4 1-107): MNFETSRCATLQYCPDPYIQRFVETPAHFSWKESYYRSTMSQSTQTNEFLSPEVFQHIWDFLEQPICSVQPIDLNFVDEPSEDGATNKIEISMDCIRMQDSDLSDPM

Sequence of p300 Taz2 (Q09472 1723-1812): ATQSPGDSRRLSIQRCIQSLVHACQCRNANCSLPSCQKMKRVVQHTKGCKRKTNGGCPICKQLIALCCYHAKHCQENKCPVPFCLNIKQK

For p300 Taz2 (from UniProt Q09472), the Kd is given as 0.196 µM.
